Data from patent publication US20260166139A1.
Values joined by “and” are separate entries in the source; they are usually repeats but may differ in a detail not shown here. Equal values may be shown once.

Experiments:
murine CTLA4 (murine) [1] = biological target: murine CTLA4 (murine) (UniProt P09793); experiment: ELISA on coated CTLA4, source Mouse (row of 8D2)
murine CTLA4 (murine) [2] = biological target: murine CTLA4 (murine) (UniProt P09793); experiment: ELISA, coat murine CTLA4 0.5 ug/ml; antibody 1 ug/ml
murine CTLA4 (murine) [3] = biological target: murine CTLA4 (murine) (UniProt P09793); experiment: ELISA on coated CTLA4, source Mouse (row of 8D2(Re))
murine CTLA4 (murine) [4] = biological target: murine CTLA4 (murine) (UniProt P09793); experiment: ELISA on coated CTLA4, source Mouse (row of 8D2H1L1)
[5] = biological target: monkey CTLA4-hFc (monkey); experiment: ELISA on coated CTLA4, source Monkey (row of 8D2H2L2)
[6] = biological target: monkey CTLA4-hFc (monkey); experiment: ELISA on coated CTLA4, source Monkey (row of 8D2H3L3)
murine CTLA4 (murine) [7] = biological target: murine CTLA4 (murine) (UniProt P09793); experiment: ELISA, coat murine CTLA4 0.5 ug/ml; antibody 0.1 ug/ml
murine CTLA4 (murine) [8] = biological target: murine CTLA4 (murine) (UniProt P09793); experiment: ELISA, coat murine CTLA4 0.5 ug/ml; antibody 0.3 ug/ml
murine CTLA4 (murine) [9] = biological target: murine CTLA4 (murine) (UniProt P09793); experiment: ELISA, coat murine CTLA4 0.5 ug/ml; antibody 0.01 ug/ml
murine CTLA4 (murine) [10] = biological target: murine CTLA4 (murine) (UniProt P09793); experiment: ELISA, coat murine CTLA4 0.5 ug/ml; antibody 0.03 ug/ml
murine CTLA4 (murine) [11] = biological target: murine CTLA4 (murine) (UniProt P09793); experiment: ELISA, coat murine CTLA4 0.5 ug/ml; antibody 0.001 ug/ml
murine CTLA4 (murine) [12] = biological target: murine CTLA4 (murine) (UniProt P09793); experiment: ELISA, coat murine CTLA4 0.5 ug/ml; antibody 0.003 ug/ml
[13] = biological target: monkey CTLA4-hFc (monkey); experiment: ELISA, coat monkey CTLA4-hFc 0.25 ug/ml; antibody 1 ug/ml
[14] = biological target: monkey CTLA4-hFc (monkey); experiment: ELISA, coat monkey CTLA4-hFc 0.25 ug/ml; antibody 0 (blank)
murine CTLA4 (murine) [15] = biological target: murine CTLA4 (murine) (UniProt P09793); experiment: ELISA, coat murine CTLA4 0.5 ug/ml; antibody 0 ug/ml (blank)
[16] = biological target: monkey CTLA4-hFc (monkey); experiment: ELISA, coat monkey CTLA4-hFc 0.25 ug/ml; antibody 1:3 (start 1 ug/ml)
[17] = biological target: monkey CTLA4-hFc (monkey); experiment: ELISA, coat monkey CTLA4-hFc 0.25 ug/ml; antibody 1:9 (start 1 ug/ml)
[18] = biological target: monkey CTLA4-hFc (monkey); experiment: ELISA, coat monkey CTLA4-hFc 0.25 ug/ml; antibody 1:27 (start 1 ug/ml)
[19] = biological target: monkey CTLA4-hFc (monkey); experiment: ELISA, coat monkey CTLA4-hFc 0.25 ug/ml; antibody 1:81 (start 1 ug/ml)
[20] = biological target: monkey CTLA4-hFc (monkey); experiment: ELISA, coat monkey CTLA4-hFc 0.25 ug/ml; antibody 1:243 (start 1 ug/ml)
[21] = biological target: monkey CTLA4-hFc (monkey); experiment: ELISA, coat monkey CTLA4-hFc 0.25 ug/ml; antibody 1:729 (start 1 ug/ml)
[22] = biological target: CTLA4 antigen on the surface of 293F-CTLA4 host cells (UniProt P16410); experiment: flow cytometry, mean fluorescence intensity with the isotype control (unlabeled 293F bar: 3.62)
Sequence of CTLA4 antigen on the surface of 293F-CTLA4 host cells (P16410 36-223 limits assumed): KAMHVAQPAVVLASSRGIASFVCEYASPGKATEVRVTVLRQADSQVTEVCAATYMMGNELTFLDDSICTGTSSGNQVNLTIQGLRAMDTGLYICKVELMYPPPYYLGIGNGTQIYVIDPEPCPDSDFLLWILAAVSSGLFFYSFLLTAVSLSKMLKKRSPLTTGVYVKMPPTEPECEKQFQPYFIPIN

control antibody 10D1 was tested, and the EC50 (murine CTLA4 (murine) [1]) was 0.062 nM, the absorbance at 450 nm (murine CTLA4 (murine) [2]) was 3 and 2.98 and the EC50 (murine CTLA4 (murine) [3]) was 0.062 nM. It also gave an EC50 (murine CTLA4 (murine) [4]) of 0.062 nM, an EC50 [5] of 0.258 nM and an EC50 [6] of 0.258 nM. For the same substance, the absorbance at 450 nm (murine CTLA4 (murine) [7]) was 2.43 and 2.54, the absorbance at 450 nm (murine CTLA4 (murine) [8]) was 2.85 and 2.9 and the absorbance at 450 nm (murine CTLA4 (murine) [9]) was 0.673 and 0.794. The absorbance at 450 nm (murine CTLA4 (murine) [10]) was 1.51, the absorbance at 450 nm (murine CTLA4 (murine) [11]) was 0.136 and 0.142 and the absorbance at 450 nm (murine CTLA4 (murine) [12]) was 0.292 and 0.328. For the same substance, the absorbance at 450 nm [13] was 1.79 and 1.85, the absorbance at 450 nm [14] was 0.049 and the absorbance at 450 nm (murine CTLA4 (murine) [15]) was 0.046 and 0.05. For the same substance, the absorbance at 450 nm [16] was 1.34, the absorbance at 450 nm [17] was 0.845 and 0.868 and the absorbance at 450 nm [18] was 0.429 and 0.402. For the same substance, the absorbance at 450 nm [19] was 0.19 and 0.191, the absorbance at 450 nm [20] was 0.104 and 0.108 and the absorbance at 450 nm [21] was 0.063 and 0.067.

isotype control (antibody) gave an MFI [22] of 4.95.
